Molecular target: Peptide-3B (NME1 H118, 1-pTza) (mammalian)
Experiment: peptide dot blot array

lowest amount detected: 1 ng
Substance: 1-pHis mAb SC1-1 (antibody)
